In the supplement of paper PMC10567573:
± gives the standard deviation.

Assay: protein stability index of a GFP-peptide fusion (GPS, HEK-293T) (PSI 1-6); higher = more stable
Details: c terminus: a fixed tail appended
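Further: 24-mer peptide tiles fused after GFP, lentivirally expressed, FACS-sorted into six equal bins by GFP/DsRed ratio, decoded by Illumina sequencing, PSI is the read-weighted mean bin number.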

Sequence	protein stability index (treatment: DMSO)	protein stability index (treatment: MLN4924 1 uM, 8 h)
DIMETSGWKSMIQSHPHLVAEAFR [SPOPL]	2.49 ± 0.37	2.68 ± 0.54
DIWSTACMAFELATGDYLFEPHSG [SRPK2]	3.2 ± 0.24	3.39 ± 0.47
DKERFTTLVQDLANAFQQEAQTSG [CHIT1]	4.19 ± 0.066	4.26 ± 0.12
DKKKELQELNELFKPVVAAQKISK [ZC3H15]	4.39 ± 0.32	4.43 ± 0.17
DKRGETTSASLLNAGLSHTEYQIV [SLC2A12]	3.69 ± 0.17	3.91 ± 0.26
DLFKSFPGPMDWVPRYTGVAPQDQ [ADAMTS4]	3.19 ± 0.29	3.21 ± 0.2
DLHCVLVTNPHSSQWKDPALSQLI [GADD45A]	2.23 ± 0.26	2.3 ± 0.16
DLINKMLTINPAKRITASEALKHP [CAMK2D]	2.49 ± 0.31	2.64 ± 0.32
DLRKHRRKLLSPVSREENREDKAT [PPFIA4]	4.52 ± 0.18	4.84 ± 0.3
DMEKILEIIRVILKLYEQWKNFDE [CCNC]	2.47 ± 0.2	2.66 ± 0.42
DMWSIGVITYILLSGASPFLGETK [DAPK3]	3.15 ± 0.3	2.97 ± 0.36
DNEGNSALHIIVQYNRPISDFLTL [FEM1B]	3.06 ± 0.9	2.33 ± 0.17
DNPPTFSQVSYFTYIPENNARGAS [PCDHGA10]	3.44 ± 0.46	3.49 ± 0.49
DPDINMHPFFFALGKILSVELGKQ [FADS1]	2.46 ± 0.61	2.38 ± 0.59
DPDPDPEPAGGSRPGPAVPGLRAL [CMTM3]	4.92 ± 0.28	4.68 ± 0.11
DPERRPSAMALVKHSVLLSASRKS [WEE1]	4.15 ± 0.3	4.05 ± 0.36
DPLLLILSFLDYRDLINCCYVSRR [FBXO3]	2.91 ± 0.74	3.05 ± 0.82
DPSGKGKGKAGRVDLVDESGYVSG [TPPP]	5.1 ± 0.42	5.27 ± 0.16

Sequence	protein stability index (treatment: DMSO)	protein stability index (treatment: MLN4924 1 uM, 8 h)
DQAGGEGKHITVFKTYISPWERAM [MYOZ1]	2.91 ± 0.27	2.84 ± 0.39
DQQNPTLGETPENSNLEEPLNPKP [ZNF449]	5.6 ± 0.19	5.29 ± 0.23
DQSKLAGLLDLNNAILQLVKKYKS [ESRRG]	2.4 ± 0.26	2.31 ± 0.5
DRSDYFAAWGARVFSFGKHYWELD [TRIM43]	2.14 ± 0.44	2.15 ± 0.57
DSSIIRTTQDLFAINRDTAFPGAS [RHOBTB3]	3.91 ± 0.23	3.94 ± 0.23
DSSMILTVPGQALACGSNRFNKLG [NEK8]	3.29 ± 0.17	3.2 ± 0.22
DSVLERWVNDPQRMDKRTLALLVL [GOLPH3L]	2.21 ± 0.28	2.31 ± 0.28
DTDRDGYISHRELGDCMRTLGYMP [CABP4]	3.41 ± 0.22	3.47 ± 0.26
DTHSWKSELQREMEALAAETNLLL [TEKT4]	3.25 ± 0.33	3.59 ± 0.44
DTLADDVPGHQTPSDLDQFSDSSL [LURAP1L]	5.44 ± 0.2	5.366 ± 0.053
DVGCISVTVPSMLSRLLSRKRAVP [OR3A1]	2.71 ± 0.26	2.85 ± 0.19
DVLNDAIFDEDHDEMVIVKDIDMF [GCH1]	3.5 ± 0.15	3.62 ± 0.2
DWGRTALHYAAASDMDRNKTILGN [ANKRD44]	3.35 ± 0.32	3.35 ± 0.17
DYLCISFEYSTIKCRDLSALMHEL [BTBD10]	2.5 ± 1.6	2.73 ± 1
DYRMELAQAGTPAPTKPHDYRQEQ [SPAG8]	5.11 ± 0.088	5.16 ± 0.14
EAEEEKGEKEEEDKDDEEKPKIED [HSP90AB1]	5.55 ± 0.35	5.6 ± 0.38
EALVNRLWKRMDKLEAEKRILQEK [CCDC6]	2.93 ± 0.08	3.6 ± 0.24
EAPASVVPFVRVKREREVDEDSEP [USP39]	5.51 ± 0.17	5.51 ± 0.2
